Measurements from patent US6528619B1, “Inhibitors for urokinase receptor” (Roche Diagnostics GmbH, priority 1997, dated 2003).
Positions of bridges follow the written chain, without caps; N, C: chain ends. Residues, ends and D or L forms follow the SMILES beside them. No end group written: not given here.

How the values were obtained:
[1] = target: T1, cell surface-associated uPAR (Homo sapiens, UniProt Q03405); assay: Flow cytometry: inhibition of binding of FITC-conjugated pro-uPA to cell surface-associated uPAR on PMA-stimulated U937 cells
T1 construct: After stimulation with PMA the U937 cells expressed considerable amounts of cell surface-associated uPAR; endogenous in cells; host or cells: U937 cells stimulated with PMA
T1 sequence (Q03405 23-305): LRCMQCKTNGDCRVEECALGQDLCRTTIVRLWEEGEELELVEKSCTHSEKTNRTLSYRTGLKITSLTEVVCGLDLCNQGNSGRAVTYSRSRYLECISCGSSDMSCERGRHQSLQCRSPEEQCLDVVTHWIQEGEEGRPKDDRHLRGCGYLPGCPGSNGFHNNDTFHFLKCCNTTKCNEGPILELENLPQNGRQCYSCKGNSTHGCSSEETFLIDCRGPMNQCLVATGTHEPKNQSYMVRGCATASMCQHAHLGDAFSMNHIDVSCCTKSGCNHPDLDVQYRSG
Procedure: The ability of the synthetic peptides to inhibit the uPA/-uPAR interaction was determined by means of flow cytometry on a FACScan flow cytometer (Becton-Dickinson, Heidelberg, Germany) using the human promyeloid cell line U937 as a source of cellular native uPAR (Chuchulowski et al., Fibrinolysis 6, Suppl. 4 (1992), 95-102; Magdolen et al., (1996), supra). The U937 cells were stimulated with […] phorbol-12-myristate-13-acetate (PMA) for 48 h. After stimulation with PMA the U937 cells expressed considerable amounts of cell surface-associated uPAR.
The stimulated cells were treated for 1 min at room temperature with 50 mM glycine HCl, 0.1 NaCl, pH 3.6 in order to dissociate endogenous receptor-bound uPA. Subsequently the acidic buffer was neutralized with 0.5 M HEPES-100 mM NaCl, pH 7.5. The cells were then immediately washed twice with PBS/0.1% bovine serum albumin (BSA) and centrifuged for 10 min at room temperature and 300×g. The cells were resuspended in PBS/0.1% BSA, adjusted to a concentration of 10^6 cells per ml and simultaneously incubated for 45 minutes at room temperature with 16 ng FITC-conjugated pro-uPA and various amounts of the synthetic peptides. Before the analysis, propidium iodide, a fluorescent dye which specifically binds double-stranded DNA, was added to each sample in order to determine the viability of the analysed U937 cells. Damaged, propidium iodide-labelled cells were excluded from the analysis.
For this the purified peptides were analysed by mass spectroscopy, quantified by amino acid analysis and then tested by flow cytometry according to the method described in 1.3 for their ability to inhibit the binding of fluorescent-labelled pro-uPA to the uPA receptor on U937 cells.

[2] = target: T2, recombinant human uPAR (Homo sapiens, UniProt Q03405); assay: Microtitre plate solid phase ATF-ligand binding test (competition with ATF for uPAR); details: for inhibition of the binding of ATF to uPAR / uPAR binding capacity: 0.6 ng ATF together with 15 μg synthetic peptide per ml, FIG. 2
T2 construct: made in house; host or cells: CHO cells
T2 sequence (Q03405 23-299 limits assumed): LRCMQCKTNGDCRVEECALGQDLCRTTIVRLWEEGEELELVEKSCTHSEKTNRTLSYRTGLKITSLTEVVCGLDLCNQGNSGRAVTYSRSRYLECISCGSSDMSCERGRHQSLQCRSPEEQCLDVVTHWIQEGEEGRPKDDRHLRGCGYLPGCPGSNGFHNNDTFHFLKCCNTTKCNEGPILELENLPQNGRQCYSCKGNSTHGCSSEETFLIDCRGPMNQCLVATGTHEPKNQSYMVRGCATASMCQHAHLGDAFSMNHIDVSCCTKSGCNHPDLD
Procedure: In addition to the flow cytometric analyses, a solid phase ATF-ligand binding test was carried out in order to examine the interactions of synthetic peptides with the uPAR. For this microtitre plates were coated with recombinant human uPAR from CHO cells (Wilhelm et al., FEBS Lett. 337 (1994), 131-134; Magdolen et al., Electrophoresis 16 (1995), 813-816) and the remaining protein-binding sites were saturated with 2% BSA (weight/vol.). After incubation with the samples (0.6 ng ATF together with 15 μg synthetic peptide per ml) and several wash steps, the amount of ATF which had bound to the immobilized uPAR on the microtitre plate was determined using a biotinylated monoclonal mouse antibody against the kringle domain of ATF (No. 377, American Diagnostics, Greenwich, Conn., USA) and subsequent addition of avidin-peroxidase conjugate and 3,3′,5,5′-tetramethylbenzidine/[…] as a substrate for the peroxidase. The presence of synthetic peptides which compete with the ATF binding to uPAR reduces the conversion of the chromogenis substrate.
A series of peptides with variable sequence regions from the receptor binding region of uPA were synthesized and were increasingly shortened at the amino terminus starting with uPA10-32. The microtitre plate solid phase binding test described in 1.4 was used to determine the inhibitory capacity of these peptides.

[3] = Stability of binding activity after long storage in aqueous solution or repeated freeze/thaw cycles; format: physicochemical; details: compared with linear uPA19-31
[4] = target: T3, recombinant human uPAR from CHO cells (human, UniProt Q03405 23-299, limits assumed); assay: solid phase ATF-ligand binding test, competition with ATF on immobilized recombinant uPAR
T3 construct: Magdolen et al. 1995; also called immobilized uPAR
T3 sequence (Q03405 23-299 limits assumed): as above

[5] = target: T4, cell surface-associated uPA receptor (uPAR) on PMA-stimulated human U937 cells (human, UniProt Q03405 23-305); assay: flow cytometry, competition with FITC-pro-uPA on U937 cells (section 2.1)
T4 construct: whole, on cells; also called urokinase receptor; cellular native uPAR
T4 sequence (Q03405 23-305): as the sequence (Q03405 23-305) above
Procedure: (§1) The U937 cells were stimulated with […] phorbol-12-myristate-13-acetate (PMA) for 48 h.
(§2) Subsequently the acidic buffer was neutralized with 0.5 M HEPES-100 mM NaCl, pH 7.5. The cells were then immediately washed twice with PBS/0.1% bovine serum albumin (BSA) and centrifuged for 10 min at room temperature and 300×g. […] Before the analysis, propidium iodide, a fluorescent dye which specifically binds double-stranded DNA, was added to each sample in order to determine the viability of the analysed U937 cells. Damaged, propidium iodide-labelled cells were excluded from the analysis.

[6] = target: T4, cell surface-associated uPA receptor …; assay: flow cytometry, competition with FITC-pro-uPA on U937 cells
Procedure: as §1, §2

**Q.** With CC[C@H](C)[C@H](NC(=O)[C@H](CC(N)=O)NC(=O)[C@H](CO)NC(=O)[C@H](Cc1ccccc1)NC(=O)[C@H](Cc1ccc(O)cc1)NC(=O)[C@H](CCCCN)NC(=O)[C@H](CC(N)=O)NC(=O)[C@H](CO)NC(=O)[C@@H](NC(=O)[C@H](CS)NC(=O)[C@@H](NC(=O)CNC(=O)CN)[C@@H](C)O)C(C)C)C(=O)N[C@@H](Cc1c[nH]cn1)C(=O)N[C@@H](Cc1c[nH]c2ccccc12)C(=O)N[C@@H](CS)C(=O)N[C@@H](CC(N)=O)C(=O)O [uPA16-32] (H-GGTCVSNKYFSNIHWCN-OH; N-terminus and C-terminus assumed) as the molecule, how does the IC50 [1] read?
**A.** The IC50 was about 3200 nM.

**Q.** And the “molar excess resulting in a 50% inhibition of the binding of uPA” value ([1]; U937 cells, 16 ng FITC-conjugated pro-uPA, 45 min, room temperature)?
**A.** The value was “approximately 3,000 molar excess”.

**Q.** And the “higher affinity to uPAR compared to the two other peptides” value ([1]; versus uPA12-32 [C19A] and clone 20 peptide)?
**A.** The value was 4- to 5 fold.

**Q.** What about the “inhibition of the binding of ATF to uPAR / uPAR binding capacity” value (shortened to “inhibition … to uPAR / uPAR binding capacity”) [2] of the same molecule?
**A.** Its value is “effectively inhibit the binding of ATF to uPAR”.

**Q.** For “cyclo^19,31uPA19-31: cyclic peptide which contains an intramolecular disulfide bond between the cysteine residues at positions 19 and 31 (CVSNKYFSNIHWC; disulfide 1-13)”, which “stability of binding activity” value [3] is on record?
**A.** Its value is “significantly more stable”.

**Q.** What about the “inhibition of the binding of uPA to the uPA receptor” value ([2]; cyclic peptide with disulfide bond between Cys 19 and 31) of the same molecule?
**A.** Its value is “still able to inhibit the binding of uPA to the uPA receptor”.

**Q.** With “uPA10-32: peptide from the receptor binding region of uPA, amino acids 10-32 (NCDCLNGGTCVSNKYFSNIHWCN)” as the molecule, how does the “inhibition … to uPAR / uPAR binding capacity” value [2] read?
**A.** The value was “effectively inhibit the binding of ATF to uPAR”.

**Q.** For “uPA12-31: peptide from the receptor binding region of uPA (DCLNGGTCVSNKYFSNIHWC)”, which “inhibition … to uPAR / uPAR binding capacity” value [2] is on record?
**A.** Its value is “effectively inhibit the binding of ATF to uPAR”.

**Q.** Which “inhibition … to uPAR / uPAR binding capacity” value [2] does the source give for “uPA14-32: peptide having the amino acids 14 to 32 of uPA (LNGGTCVSNKYFSNIHWCN) [reference compound]” here?
**A.** Its value is “effectively inhibit the binding of ATF to uPAR”.

**Q.** For “uPA17-32: peptide from the receptor binding region of uPA (GTCVSNKYFSNIHWCN)”, which “inhibition … to uPAR / uPAR binding capacity” value [2] is on record?
**A.** The value was “considerably reduced uPAR binding capacities”.

**Q.** For “uPA18-30: linear peptide from the receptor binding region of uPA (TCVSNKYFSNIHW)”, which “inhibition … to uPAR / uPAR binding capacity” value [2] is on record?
**A.** Its value is “no significant binding capacity”.

**Q.** For “uPA18-34: peptide from the receptor binding region of uPA (TCVSNKYFSNIHWCNCP)”, which “inhibition … to uPAR / uPAR binding capacity” value [2] is on record?
**A.** The value was “considerably reduced uPAR binding capacities”.

**Q.** For “uPA20-30: linear peptide from the receptor binding region of uPA (VSNKYFSNIHW)”, which “inhibition … to uPAR / uPAR binding capacity” value [2] is on record?
**A.** Its value is “no significant binding capacity”.

**Q.** For “uPA20-32: linear peptide from the receptor binding region of uPA (VSNKYFSNIHWCN)”, which “inhibition … to uPAR / uPAR binding capacity” value [2] is on record?
**A.** Its value is “no significant binding capacity”.

**Q.** Which “inhibition … to uPAR / uPAR binding capacity” value [2] does the source give for “uPA20-34: peptide from the receptor binding region of uPA (VSNKYFSNIHWCNCP)” here?
**A.** The value was “does not bind at all to the uPAR”.

**Q.** Does VSNKYFSNIHWCNCP (peptide, UniProt P00749 40-54, looked up, range 40-54) [uPA20-34] bind [4]?
**A.** Result: no binding (tested: 15 µg synthetic peptide per ml)

**Q.** With CVSNKYFSNIHWC (Linear form) [linear peptide uPA19-31] as the molecule, how does the IC50 [5] read?
**A.** The IC50 was about 800 nM.

**Q.** Does VSNKYFSNIHWCN (peptide, UniProt P00749 40-52, looked up, range 40-52) [uPA20-32] bind [4]?
**A.** Result: no binding (tested: 15 µg synthetic peptide per ml)

**Q.** Does TCVSNKYFSNIHW (peptide, UniProt P00749 38-50, looked up, range 18-30) [uPA18-30] bind [4]?
**A.** Result: no binding (tested: 15 µg synthetic peptide per ml)

**Q.** With AEPMPHSLNFSQYLWYT [clone 20-peptide AEPMPHSLNFSQYLWYT] as the molecule, how does the “molar excess for 50% inhibition of the binding of uPA” value [6] read?
**A.** Its value is about 12000 fold molar excess.

**Q.** Which “molar excess for 50% inhibition of the binding of uPA” value [6] does the source give for GGTCVSNKYFSNIHWCN (peptide, UniProt P00749 36-52, looked up, range 16-32) [uPA16-32] here?
**A.** Its value is about 3000 fold molar excess.
